Substitutions are numbered along the chain they refer to. Each block holds one binder with its values, some of them ahead of it.
Experiments:
[1] = target: T1, pancreatic adenocarcinoma upregulated factor (PAUF) protein (UniProt Q96DA0 17-172, limits assumed); assay: SPR, PAUF immobilized, antibody in flow at different concentrations
T1 construct: no tag is mentioned there; also called Antigen PAUF
T1 sequence (looked up): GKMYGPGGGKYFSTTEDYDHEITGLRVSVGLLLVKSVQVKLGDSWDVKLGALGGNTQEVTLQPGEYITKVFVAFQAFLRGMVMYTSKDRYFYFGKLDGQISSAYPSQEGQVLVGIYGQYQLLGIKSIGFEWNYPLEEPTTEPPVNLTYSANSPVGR
Experimental: Specifically, the antigen-antibody binding affinity was measured using the SPR method. Antigen PAUF was immobilized on the surface of a thin metal film and the antibody was diluted at different concentrations and allowed to pass through the metal surface. The antigen-antibody binding affinity was measured by measuring the time required for binding and dissociation between antigens and antibodies.

PAUF-His protein = target: T2, PAUF-His protein (UniProt Q96DA0 17-172, limits assumed); assay: indirect ELISA titration on PAUF-His, anti-human Fc-HRP; column head Kd (10^-9 M)
T2 construct: not shown: His tag
T2 sequence (looked up): T1 sequence (looked up)
Experimental: Specifically, indirect ELISA was performed. An immuno-plate was coated with the PAUF-His protein and treated with each antibody at different concentrations, and the results were analyzed using the anti-human Fc-HRP capable of recognizing the constant region of human antibody as the secondary antibody. In particular, as the concentration of each antibody increases, the OD value increases.

[2] = target: T1, pancreatic adenocarcinoma upregulated …; assay: indirect ELISA, PAUF-coated plate, HRP-labeled anti-mouse antibody
Experimental: Specifically, the affinity of the antigen-antibody was tested using indirect ELISA. The PAUF-coated immuno-plate was treated with the four kinds of antibodies (2H2, 4E6, 11 G6, and 20C5) at different concentrations and the OD values were measured using the HRP-labeled anti-mouse antibody. In particular, as the OD value becomes higher, the affinity of the antibody for the PAUF becomes higher. Additionally, for the measurement of the nonspecific binding of an anti-PAUF mouse monoclonal antibody, which has a high affinity for PAUF, to other antigenic proteins, the immuno-plate was coated with PAUF and unspecified antigens so as to perform indirect ELISA.

- Kd [1]: 0.194 nM
B1: hPMAb22 (anti-PAUF protein humanized antibody) (antibody, V domains shown)
VH: QVQLVQSGAEVKKPGASVKVSCKASGFNIKDYYMHWVRQAPGQGLEWMGWIDPENGNTNYAQKFQGRVTMTRDTSISTAYMELSRLRSDDTAVYYCARRAITTATAWFAYWGQGTLVTVSS
VL: DIVMTQSPDSLAVSLGERATINCKSSQSLLNSRTRKNYLAWYQQKPGQPPKLLIYWASTRESGVPDRFSGSGSGTDFTLTISSLQAEDVAVYYCKQSYNLYTFGQGTKVEIK
notes: CDR-grafted humanized antibody with human constant regions; Expressed in HEK293 cells; also called 2H2-VH1/VL1; 2H2-VH1-VL1

- Kd (PAUF-His protein): 0.01 nM
B2: cPMAb22 (chimeric antibody of 2H2) (antibody, V domains shown)
VH: QVQLKQSGAELVRPGALVKLSCKASGFNIKDYYMHWVKQRPEQGLEWIGWIDPENGNTIYDPKFQGKASITADTSSNTAYLQLSSLTSEDTAVYYCARRAITTATAWFAYWGQGTLVTVSA
VL: DIVMTQSPSSLAVSAGEKVTMSCKSSQSLLNSRTRKNYLAWYQQKPGQSPKLLIYWASTRESGVPDRFTGSGSGTDFTLTISSVQAEDLAVYYCKQSYNLYTFGAGTKLELK
notes: Mouse variable regions of 2H2 on human heavy and light chain constant regions (kappa light chain implied by the anti-human kappa secondary antibody); Expressed in HEK293 cells

- Kd (PAUF-His protein): 0.03 nM
B3: cPMAb205 (chimeric antibody of 20C5) (antibody, V domains shown)
VH: QVQLKESGAELVRPGALVKLSCKASGFNIKDYYMHWVKQRPEQGLEWIGWIDPEHGNTIYDPKFQGKASLTADTSSNTAYLQLSSLTSEDTAVYYCARRGWLPAWFAYWGQGTLVTVSA
VL: B2 VL with M21L, A105G, L111I
notes: Mouse variable regions of 20C5 on human heavy and light chain constant regions (kappa light chain implied by the anti-human kappa secondary antibody); Expressed in HEK293 cells

- EC50 (read off the curve) [2]: ~0.05 µg/mL
B4: 2H2 (anti-PAUF protein mouse antibody) (antibody, V domains shown)
VH: B2 VH
VL: B2 VL
notes: Mouse monoclonal antibody; also called 21-12 [sic]

- EC50 (read off the curve) [2]: ~0.02 µg/mL
B5: 20C5 (anti-PAUF protein mouse antibody) (antibody, V domains shown)
VH: B3 VH
VL: B2 VL with M21L, A105G, L111I
notes: Mouse monoclonal antibody
